# Source: patent publication US20240239875A1 (published 2024)
# Read-outs that look alike come from different tables or passages of the source.
# T1: MERS spike protein (MERS-CoV, UniProt K9N5Q8 18-1296)
# T1 chain: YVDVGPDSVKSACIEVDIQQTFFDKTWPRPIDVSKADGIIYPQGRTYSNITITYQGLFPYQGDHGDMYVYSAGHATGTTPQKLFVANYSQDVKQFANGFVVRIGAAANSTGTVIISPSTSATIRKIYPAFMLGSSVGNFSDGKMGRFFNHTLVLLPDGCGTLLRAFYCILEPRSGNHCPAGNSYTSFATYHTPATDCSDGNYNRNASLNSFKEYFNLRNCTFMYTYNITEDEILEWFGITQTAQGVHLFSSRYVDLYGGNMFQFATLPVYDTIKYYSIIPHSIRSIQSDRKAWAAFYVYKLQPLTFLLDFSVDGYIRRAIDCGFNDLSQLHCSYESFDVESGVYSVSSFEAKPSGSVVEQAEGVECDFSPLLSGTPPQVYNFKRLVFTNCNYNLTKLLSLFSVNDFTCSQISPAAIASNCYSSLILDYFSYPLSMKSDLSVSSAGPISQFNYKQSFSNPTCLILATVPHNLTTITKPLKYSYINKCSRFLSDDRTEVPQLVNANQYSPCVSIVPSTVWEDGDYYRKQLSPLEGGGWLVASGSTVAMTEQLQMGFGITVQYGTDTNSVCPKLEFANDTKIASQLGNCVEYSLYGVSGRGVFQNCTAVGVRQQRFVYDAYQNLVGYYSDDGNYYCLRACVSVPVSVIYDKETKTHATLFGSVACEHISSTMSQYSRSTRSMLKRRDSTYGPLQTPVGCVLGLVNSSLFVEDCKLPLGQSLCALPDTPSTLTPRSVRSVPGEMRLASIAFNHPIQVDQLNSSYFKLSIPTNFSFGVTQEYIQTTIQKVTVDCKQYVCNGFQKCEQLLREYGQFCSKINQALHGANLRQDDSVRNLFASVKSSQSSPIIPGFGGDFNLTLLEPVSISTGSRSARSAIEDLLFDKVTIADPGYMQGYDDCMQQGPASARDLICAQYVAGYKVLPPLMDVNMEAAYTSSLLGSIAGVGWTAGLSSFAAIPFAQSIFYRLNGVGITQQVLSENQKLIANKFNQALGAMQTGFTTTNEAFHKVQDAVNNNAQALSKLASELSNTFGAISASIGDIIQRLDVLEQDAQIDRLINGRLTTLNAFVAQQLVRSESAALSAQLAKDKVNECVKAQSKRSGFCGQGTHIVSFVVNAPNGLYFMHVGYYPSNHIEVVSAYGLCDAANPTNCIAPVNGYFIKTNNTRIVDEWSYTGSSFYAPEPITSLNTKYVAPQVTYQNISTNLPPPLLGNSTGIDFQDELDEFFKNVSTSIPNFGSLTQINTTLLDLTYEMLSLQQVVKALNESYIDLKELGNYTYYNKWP
# T2: HKU1 spike protein (HCoV-HKU1)
# T2 chain: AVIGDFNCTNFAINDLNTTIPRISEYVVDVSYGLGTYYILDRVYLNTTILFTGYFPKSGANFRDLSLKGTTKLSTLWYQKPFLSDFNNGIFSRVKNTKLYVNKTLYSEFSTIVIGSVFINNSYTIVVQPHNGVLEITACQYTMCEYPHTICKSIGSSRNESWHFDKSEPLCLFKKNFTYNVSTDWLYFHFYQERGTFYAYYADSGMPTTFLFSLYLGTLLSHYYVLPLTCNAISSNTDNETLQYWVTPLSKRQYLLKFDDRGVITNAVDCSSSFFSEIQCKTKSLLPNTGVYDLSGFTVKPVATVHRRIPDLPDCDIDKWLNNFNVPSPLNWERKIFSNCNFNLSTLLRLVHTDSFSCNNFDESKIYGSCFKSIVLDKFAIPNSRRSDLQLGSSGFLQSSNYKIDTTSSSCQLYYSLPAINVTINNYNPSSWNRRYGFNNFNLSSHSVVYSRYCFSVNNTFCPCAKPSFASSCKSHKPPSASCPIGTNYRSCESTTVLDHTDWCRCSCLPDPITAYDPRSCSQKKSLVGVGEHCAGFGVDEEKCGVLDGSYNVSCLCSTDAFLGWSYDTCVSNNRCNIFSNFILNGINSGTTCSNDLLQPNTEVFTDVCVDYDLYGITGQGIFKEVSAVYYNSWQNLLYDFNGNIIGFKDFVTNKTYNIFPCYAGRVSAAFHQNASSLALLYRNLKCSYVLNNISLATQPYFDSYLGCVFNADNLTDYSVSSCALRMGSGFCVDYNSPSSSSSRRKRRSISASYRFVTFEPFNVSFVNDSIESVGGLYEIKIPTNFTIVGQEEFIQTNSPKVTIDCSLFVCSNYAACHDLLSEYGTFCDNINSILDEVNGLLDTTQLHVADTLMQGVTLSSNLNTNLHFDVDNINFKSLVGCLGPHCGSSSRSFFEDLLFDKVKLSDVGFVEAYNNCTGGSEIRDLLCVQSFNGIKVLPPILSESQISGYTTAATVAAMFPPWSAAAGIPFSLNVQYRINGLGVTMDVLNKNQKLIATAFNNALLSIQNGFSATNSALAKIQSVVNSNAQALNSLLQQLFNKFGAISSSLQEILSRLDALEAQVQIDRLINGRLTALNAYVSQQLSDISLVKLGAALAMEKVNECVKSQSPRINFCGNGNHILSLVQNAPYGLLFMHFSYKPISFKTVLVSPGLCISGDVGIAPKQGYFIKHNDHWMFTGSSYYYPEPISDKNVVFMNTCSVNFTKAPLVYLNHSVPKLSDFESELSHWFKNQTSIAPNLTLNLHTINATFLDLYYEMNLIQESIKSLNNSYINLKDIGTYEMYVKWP
# Legend:
# Assay in all cases: ELISA
# SARS-CoV-2 S2 domain = SARS-CoV-2 S2 domain (UniProt P0DTC2 686-1213)
# MERS spike protein = target: T1, MERS spike protein
# SARS-CoV-1 spike protein = SARS-CoV-1 spike protein (SARS-CoV-1, UniProt P59594 14-1195)
# HKU1 spike protein = target: T2, HKU1 spike protein
# [1] = target: T3, SARS-CoV-2 prefusion stabilized trimer protein (WIV02 isolate spike protein) (UniProt P0DTC2 14-1213)
# [2] = target: T3, SARS-CoV-2 prefusion stabilized trimer …; remark: listed apart in the source
# [3] = target: SARS-CoV-2 receptor binding domain (UniProt P0DTC2 319-541)
Binder,EC50 (SARS-CoV-2 S2 domain) [nM],EC50 (MERS spike protein) [nM],EC50 (SARS-CoV-1 spike protein) [nM],EC50 (HKU1 spike protein) [nM],EC50 [1] [nM],EC50 [2] [nM],EC50 [3] [nM]
"10-B11-A (antibody, V domains shown) VH: QVQLQQPGAELVKPGASVKVSCKASGYTFTSYWMHWVKQRPGQGLEWIGRIHPSDSDTNYYQKFKGKATLSVDKSSSTAYMQLSSLTSEDSAVYYCAIPLYSYDNSGGYYPMDYWGQGTSVTVSS VL: DIVMTQSQKFMSTSVGDRVTITCKASQNVRTAVAWYQQKPGQSPKKLIYLASNRHTGVPDRFTGSGSGTDFTLAISNVQSEDLADYFCLQHWNYPFTFGSGTRLEIK",1.13,> 200,20.8,> 200,,,
"2-J9-A (antibody, V domains shown) VH: EVQLQQSGPELVKPGASVKMSCKASGYTFTDYNIHWVKQSHGKSLEWIGYINPNNGGTDYNQKFQGKATLTVNKSSSTAYMELRSLTSEDSAVYYCARGGFYGNYGAYYGMDFWGQGTSVTVSS VL: DIQMTQSPASLSASVGETVTITCRTSENIYSHLAWYQQTQGKSPQLLVYNTKTLAEGVPSRFTGSGSGTQFSLKINSLQPEDFGSYYCQHHYGIPPEFGGGTKLEIK",0.05,1.83,0.17,,0.08,0.11,
"4-N22-A (antibody, V domains shown) VH: QVQLQQPGTELVKPGASVKLSCKASGYTFTNYWMYWVKQRPGQGLDWIGNINPSNGGTNYNEKFKSKATLTVDKSSSTAYMQLSSLTSEDSAVYYCARETGNYWGQGTTLTVSS VL: DILMTQSPSSMSVSLGDTVSISCHASQGISSNIGWLQQKPGKSFKGLIYHGTNLEDGVPSRFSGSGSGADYSLTISSLESEDFADYYCVQYAQFPYTFGGGTKLEIK",,,,15.8,17.8,,0.21
"2-P2-A (antibody, V domains shown) VH: EVQLQQSGAELVRPGSSVKMSCKTSGYTFTSYGINWVKQRPGQGLEWIGYIYIGNGYTEYNEKFKGKATLTSDTSSSTAYMQLSSLTSEDSAIYFCARGGVDYWGQGTTLTVSS VL: DVLMTQTPLSLPVSLGDQASISCRSSQSIVHSNGNTYLEWYLQKPGQSPKLLIYKVSNRFSGVPDRFSGSGSGTDFTLKISRVEAEDLGVYYCFQGSHVPYTFGGGTKLEIK",0.07,,0.19,,0.13,0.12,89.5
